From patent publication US20230242651A1 (published 2023)
Substitutions are numbered along the chain they refer to.

T1: human interleukin-23 receptor (IL23R) (human, UniProt Q5VWK5 24-355, limits assumed)
T1 construct: also called human IL23R
T1 sequence (looked up): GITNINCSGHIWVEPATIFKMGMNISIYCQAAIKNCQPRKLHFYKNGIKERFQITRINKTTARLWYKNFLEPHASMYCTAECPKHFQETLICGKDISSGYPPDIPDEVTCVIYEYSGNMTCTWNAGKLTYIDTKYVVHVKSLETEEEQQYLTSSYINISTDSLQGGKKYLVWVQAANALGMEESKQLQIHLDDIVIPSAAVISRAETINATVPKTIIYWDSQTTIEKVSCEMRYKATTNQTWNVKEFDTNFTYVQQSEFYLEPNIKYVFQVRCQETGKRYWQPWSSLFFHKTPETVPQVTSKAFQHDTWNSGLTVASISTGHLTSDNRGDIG

B1: Vκ1/VH3 consensus (uncapped), human IL23R specific scFv (scFv)
scFv: DIQMTQSPSSLSASVGDRVTITCQASENIYSFLAWYQQKPGKAPKLLIYSASKLAAGVPSRFSGSGSGTDFTLTISSLQPEDFATYYCQQTNRYSNPDIYNVFGQGTKVEIKRGGGGSGGGGSGGGGSGGGGSEVQLVESGGGLVQPGGSLRLSCAASGIDFNSNYYMCWVRQAPGKGLEWVSCIYVGSHVNTYYANWAKGRFTISRDNSKNTLYLQMNSLRAEDTAVYYCATSGSSVLYFKFWGQGTLVTVSS
notes: scFv VL-linker-VH, made in E. coli; Vκ framework IV (uncapped, full consensus); also called Vκ1VH3 uncapped
B2: Vκ2/VH4 consensus (uncapped), human IL23R specific scFv (scFv)
scFv: DIVMTQSPLSLPVTPGEPASISCQASENIYSFLAWYLQKPGQSPQLLIYSASKLAAGVPDRFSGSGSGTDFTLKISRVEAEDVGVYYCQQTNRYSNPDIYNVFGQGTKVEIKRGGGGSGGGGSGGGGSGGGGSQVQLQESGPGLVKPSETLSLTCTVSGIDFNSNYYMCWIRQPPGKGLEWIGCIYVGSHVNTYYANWAKGRVTISVDTSKNQFSLKLSSVTAADTAVYYCATSGSSVLYFKFWGQGTLVTVSS
notes: scFv VL-linker-VH, made in E. coli; Vκ framework IV (uncapped, full consensus); also called Vκ2VH4 uncapped
B3: Vκ1/VH6 consensus (uncapped), human IL23R specific scFv (scFv)
scFv: DIQMTQSPSSLSASVGDRVTITCQASENIYSFLAWYQQKPGKAPKLLIYSASKLAAGVPSRFSGSGSGTDFTLTISSLQPEDFATYYCQQTNRYSNPDIYNVFGQGTKVEIKRGGGGSGGGGSGGGGSGGGGSQVQLQQSGPGLVKPSQTLSLTCAISGIDFNSNYYMCWIRQSPGRGLEWLGCIYVGSHVNTYYANWAKGRITINPDTSKNQFSLQLNSVTPEDTAVYYCATSGSSVLYFKFWGQGTLVTVSS
notes: scFv VL-linker-VH, made in E. coli; Vκ framework IV (uncapped, full consensus); also called Vκ1VH6 uncapped
B4: Vκ1/VH4 consensus (uncapped), human IL23R specific scFv (scFv)
scFv: DIQMTQSPSSLSASVGDRVTITCQASENIYSFLAWYQQKPGKAPKLLIYSASKLAAGVPSRFSGSGSGTDFTLTISSLQPEDFATYYCQQTNRYSNPDIYNVFGQGTKVEIKRGGGGSGGGGSGGGGSGGGGSQVQLQESGPGLVKPSETLSLTCTVSGIDFNSNYYMCWIRQPPGKGLEWIGCIYVGSHVNTYYANWAKGRVTISVDTSKNQFSLKLSSVTAADTAVYYCATSGSSVLYFKFWGQGTLVTVSS
notes: scFv VL-linker-VH, made in E. coli; Vκ framework IV (uncapped, full consensus); also called Vκ1VH4 uncapped
B5: Vκ1/VH1A consensus (uncapped), human IL23R specific scFv (scFv)
scFv: DIQMTQSPSSLSASVGDRVTITCQASENIYSFLAWYQQKPGKAPKLLIYSASKLAAGVPSRFSGSGSGTDFTLTISSLQPEDFATYYCQQTNRYSNPDIYNVFGQGTKVEIKRGGGGSGGGGSGGGGSGGGGSQVQLVQSGAEVKKPGSSVKVSCKASGIDFNSNYYMCWVRQAPGQGLEWMGCIYVGSHVNTYYANWAKGRVTITADESTSTAYMELSSLRSEDTAVYYCATSGSSVLYFKFWGQGTLVTVSS
notes: scFv VL-linker-VH, made in E. coli; Vκ framework IV (uncapped, full consensus); also called Vκ1VH1A uncapped
B6: Vκ1/VH1B consensus (uncapped), human IL23R specific scFv (scFv)
scFv: B5 scFv with S149A, I205M, A207R, E209T, T211I
notes: scFv VL-linker-VH, made in E. coli; Vκ framework IV (uncapped, full consensus); also called Vκ1VH1B uncapped
B7: Vκ1/VH5 consensus (uncapped), human IL23R specific scFv (scFv)
scFv: DIQMTQSPSSLSASVGDRVTITCQASENIYSFLAWYQQKPGKAPKLLIYSASKLAAGVPSRFSGSGSGTDFTLTISSLQPEDFATYYCQQTNRYSNPDIYNVFGQGTKVEIKRGGGGSGGGGSGGGGSGGGGSEVQLVQSGAEVKKPGESLKISCKGSGIDFNSNYYMCWVRQMPGKGLEWMGCIYVGSHVNTYYANWAKGQVTISADKSISTAYLQWSSLKASDTAMYYCATSGSSVLYFKFWGQGTLVTVSS
notes: scFv VL-linker-VH, made in E. coli; Vκ framework IV (uncapped, full consensus); also called Vκ1VH5 uncapped
B8: Vκ2/VH5 consensus (uncapped), human IL23R specific scFv (scFv)
scFv: DIVMTQSPLSLPVTPGEPASISCQASENIYSFLAWYLQKPGQSPQLLIYSASKLAAGVPDRFSGSGSGTDFTLKISRVEAEDVGVYYCQQTNRYSNPDIYNVFGQGTKVEIKRGGGGSGGGGSGGGGSGGGGSEVQLVQSGAEVKKPGESLKISCKGSGIDFNSNYYMCWVRQMPGKGLEWMGCIYVGSHVNTYYANWAKGQVTISADKSISTAYLQWSSLKASDTAMYYCATSGSSVLYFKFWGQGTLVTVSS
notes: scFv VL-linker-VH, made in E. coli; Vκ framework IV (uncapped, full consensus); also called Vκ2VH5 uncapped
B9: Vκ2/VH3 consensus (uncapped), human IL23R specific scFv (scFv)
scFv: DIVMTQSPLSLPVTPGEPASISCQASENIYSFLAWYLQKPGQSPQLLIYSASKLAAGVPDRFSGSGSGTDFTLKISRVEAEDVGVYYCQQTNRYSNPDIYNVFGQGTKVEIKRGGGGSGGGGSGGGGSGGGGSEVQLVESGGGLVQPGGSLRLSCAASGIDFNSNYYMCWVRQAPGKGLEWVSCIYVGSHVNTYYANWAKGRFTISRDNSKNTLYLQMNSLRAEDTAVYYCATSGSSVLYFKFWGQGTLVTVSS
notes: scFv VL-linker-VH, made in E. coli; Vκ framework IV (uncapped, full consensus); also called Vκ2VH3 uncapped
B10: Vκ3/VH3 consensus (uncapped), human IL23R specific scFv (scFv)
scFv: DIVLTQSPATLSLSPGERATLSCQASENIYSFLAWYQQKPGQAPRLLIYSASKLAAGVPARFSGSGSGTDFTLTISSLEPEDFAVYYCQQTNRYSNPDIYNVFGQGTKVEIKRGGGGSGGGGSGGGGSGGGGSEVQLVESGGGLVQPGGSLRLSCAASGIDFNSNYYMCWVRQAPGKGLEWVSCIYVGSHVNTYYANWAKGRFTISRDNSKNTLYLQMNSLRAEDTAVYYCATSGSSVLYFKFWGQGTLVTVSS
notes: scFv VL-linker-VH, made in E. coli; Vκ framework IV (uncapped, full consensus); also called Vκ3VH3 uncapped
B11: Vκ3/VH4 consensus (uncapped), human IL23R specific scFv (scFv)
scFv: DIVLTQSPATLSLSPGERATLSCQASENIYSFLAWYQQKPGQAPRLLIYSASKLAAGVPARFSGSGSGTDFTLTISSLEPEDFAVYYCQQTNRYSNPDIYNVFGQGTKVEIKRGGGGSGGGGSGGGGSGGGGSQVQLQESGPGLVKPSETLSLTCTVSGIDFNSNYYMCWIRQPPGKGLEWIGCIYVGSHVNTYYANWAKGRVTISVDTSKNQFSLKLSSVTAADTAVYYCATSGSSVLYFKFWGQGTLVTVSS
notes: scFv VL-linker-VH, made in E. coli; Vκ framework IV (uncapped, full consensus); also called Vκ3VH4 uncapped
B12: Vκ2/VH1A consensus (uncapped), human IL23R specific scFv (scFv)
scFv: DIVMTQSPLSLPVTPGEPASISCQASENIYSFLAWYLQKPGQSPQLLIYSASKLAAGVPDRFSGSGSGTDFTLKISRVEAEDVGVYYCQQTNRYSNPDIYNVFGQGTKVEIKRGGGGSGGGGSGGGGSGGGGSQVQLVQSGAEVKKPGSSVKVSCKASGIDFNSNYYMCWVRQAPGQGLEWMGCIYVGSHVNTYYANWAKGRVTITADESTSTAYMELSSLRSEDTAVYYCATSGSSVLYFKFWGQGTLVTVSS
notes: scFv VL-linker-VH, made in E. coli; Vκ framework IV (uncapped, full consensus); also called Vκ2VH1A uncapped
B13: Vκ2/VH1B consensus λ-capped, human IL23R specific scFv (scFv)
scFv: DIVMTQSPLSLPVTPGEPASISCQASENIYSFLAWYLQKPGQSPQLLIYSASKLAAGVPDRFSGSGSGTDFTLKISRVEAEDVGVYYCQQTNRYSNPDIYNVFGGGTKLTVLGGGGGSGGGGSGGGGSGGGGSQVQLVQSGAEVKKPGASVKVSCKASGIDFNSNYYMCWVRQAPGQGLEWMGCIYVGSHVNTYYANWAKGRVTMTRDTSISTAYMELSSLRSEDTAVYYCATSGSSVLYFKFWGQGTLVTVSS
notes: scFv VL-linker-VH, made in E. coli; also called Vκ2VH1B capped
B14: Vκ2/VH2 consensus λ-capped, human IL23R specific scFv (scFv)
scFv: DIVMTQSPLSLPVTPGEPASISCQASENIYSFLAWYLQKPGQSPQLLIYSASKLAAGVPDRFSGSGSGTDFTLKISRVEAEDVGVYYCQQTNRYSNPDIYNVFGGGTKLTVLGGGGGSGGGGSGGGGSGGGGSQVQLKESGPALVKPTQTLTLTCTFSGIDFNSNYYMCWIRQPPGKALEWLACIYVGSHVNTYYANWAKGRLTISKDTSKNQVVLTMTNMDPVDTATYYCATSGSSVLYFKFWGQGTLVTVSS
notes: scFv VL-linker-VH, made in E. coli; also called Vκ2VH2 capped
B15: Vκ3/VH6 consensus λ-capped, human IL23R specific scFv (scFv)
scFv: DIVLTQSPATLSLSPGERATLSCQASENIYSFLAWYQQKPGQAPRLLIYSASKLAAGVPARFSGSGSGTDFTLTISSLEPEDFAVYYCQQTNRYSNPDIYNVFGGGTKLTVLGGGGGSGGGGSGGGGSGGGGSQVQLQQSGPGLVKPSQTLSLTCAISGIDFNSNYYMCWIRQSPGRGLEWLGCIYVGSHVNTYYANWAKGRITINPDTSKNQFSLQLNSVTPEDTAVYYCATSGSSVLYFKFWGQGTLVTVSS
notes: scFv VL-linker-VH, made in E. coli; also called Vκ3VH6 capped
B16: Vκ1/VH2 consensus (uncapped), human IL23R specific scFv (scFv)
scFv: DIQMTQSPSSLSASVGDRVTITCQASENIYSFLAWYQQKPGKAPKLLIYSASKLAAGVPSRFSGSGSGTDFTLTISSLQPEDFATYYCQQTNRYSNPDIYNVFGQGTKVEIKRGGGGSGGGGSGGGGSGGGGSQVQLKESGPALVKPTQTLTLTCTFSGIDFNSNYYMCWIRQPPGKALEWLACIYVGSHVNTYYANWAKGRLTISKDTSKNQVVLTMTNMDPVDTATYYCATSGSSVLYFKFWGQGTLVTVSS
notes: scFv VL-linker-VH, made in E. coli; Vκ framework IV (uncapped, full consensus); also called Vκ1VH2 uncapped
B17: Vκ3/VH5 consensus (uncapped), human IL23R specific scFv (scFv)
scFv: DIVLTQSPATLSLSPGERATLSCQASENIYSFLAWYQQKPGQAPRLLIYSASKLAAGVPARFSGSGSGTDFTLTISSLEPEDFAVYYCQQTNRYSNPDIYNVFGQGTKVEIKRGGGGSGGGGSGGGGSGGGGSEVQLVQSGAEVKKPGESLKISCKGSGIDFNSNYYMCWVRQMPGKGLEWMGCIYVGSHVNTYYANWAKGQVTISADKSISTAYLQWSSLKASDTAMYYCATSGSSVLYFKFWGQGTLVTVSS
notes: scFv VL-linker-VH, made in E. coli; Vκ framework IV (uncapped, full consensus); also called Vκ3VH5 uncapped

Molecular target: T1, human interleukin-23 receptor (IL23R)
Test: SPR, scFv (summary table)
Method in brief: (§1)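 Binding to human IL23R was assessed by surface plasmon resonance, with values given as rate constants and dissociation constant or as a λ-capped over uncapped dissociation-constant ratio. The binders were humanized rabbit variable domains in single-chain variable fragment format on consensus germline framework pairs, with or without a λ-cap. Each was produced in E. coli as inclusion bodies and refolded after solubilization.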

Kd [nM]	Binder
0.0347	B1
0.125	B2
0.251	B3
0.0991	B4
0.02	B5
0.168	B6
0.239	B7
0.303	B8
0.0236	B9
0.0395	B10
0.139	B11
0.222	B12
0.143	B13
0.0741	B14
0.394	B15
0.211	B16
0.525	B17

Molecular target: T1, human interleukin-23 receptor (IL23R)
Test: SPR, scFv
Method in brief: as §1

Kd [nM]	koff [s⁻¹]	kon [M⁻¹ s⁻¹]	Binder
0.0347	5.28e-05	1.52e+06	B1
0.125	0.000157	1.26e+06	B2
0.251	0.000309	1.23e+06	B3
0.0991	0.000176	1.78e+06	B4
0.02	0.000128	6.42e+06	B5
0.168	0.000413	2.45e+06	B6
0.239	0.000538	2.25e+06	B7
0.303	0.000475	1.57e+06	B8
0.0236	4.3e-05	1.82e+06	B9
0.0395	6.52e-05	1.65e+06	B10
0.139	0.000263	1.89e+06	B11
0.222	0.000279	1.26e+06	B12
0.143	0.000326	2.29e+06	B13
0.0741	0.000102	1.38e+06	B14
0.394	0.000563	1.43e+06	B15
0.211	0.000333	1.58e+06	B16
0.525	0.000904	1.72e+06	B17
